Measured values published in article doi:10.1101/2024.04.09.588654 (bioRxiv, 2024).

Biological target: Phosphatidylinositol 4-kinase alpha (PI4KA), subunit of the PI4KA complex (human, UniProt P42356 1-2102)
Assay: cryo-EM structure

- binding result: binds
B1: TTC7B, subunit of the PI4KA complex (natural protein)
chain: MATKKAGSRLETEIERCRSECQWERIPELVKQLSAKLIANDDMAELLLGESKLEQYLKEHPLRQGASPRGPKPQLTEVRKHLTAALDRGNLKSEFLQESNLIMAKLNYVEGDYKEALNIYARVGLDDLPLTAVPPYRLRVIAEAYATKGLCLEKLPISSSTSNLHVDREQDVITCYEKAGDIALLYLQEIERVILSNIQNRSPKPGPAPHDQELGFFLETGLQRAHVLYFKNGNLTRGVGRFRELLRAVETRTTQNLRMTIARQLAEILLRGMCEQSYWNPLEDPPCQSPLDDPLRKGANTKTYTLTRRARVYSGENIFCPQENTEEALLLLLISESMANRDAVLSRIPEHKSDRLISLQSASVVYDLLTIALGRRGQYEMLSECLERAMKFAFEEFHLWYQFALSLMAAGKSARAVKVLKECIRLKPDDATIPLLAAKLCMGSLHWLEEAEKFAKTVVDVGEKTSEFKAKGYLALGLTYSLQATDASLRGMQEVLQRKALLAFQRAHSLSPTDHQAAFYLALQLAISRQIPEALGYVRQALQLQGDDANSLHLLALLLSAQKHYHDALNIIDMALSEYPENFILLFSKVKLQSLCRGPDEALLTCKHMLQIWKSCYNLTNPSDSGRGSSLLDRTIADRRQLNTITLPDFSDPETGSVHATSVAASRVEQALSEVASSLQSSAPKQGPLHPWMTLAQIWLHAAEVYIGIGKPAEATACTQEAANLFPMSHNVLYMRGQIAELRGSMDEARRWYEEALAISPTHVKSMQRLALILHQLGRYSLAEKILRDAVQVNSTAHEVWNGLGEVLQAQGNDAAATECFLTALELEASSPAVPFTIIPRVL
